{
  "source": "paper PMC1807967",
  "binders": {"B1": {"name": "20 bp dsDNA (dsDNA)", "DNA 1": "ATGTGAATCAGTATGGTTTC", "DNA 2": "GAAACCATACTGATTCACAT"}},
  "experiment_in_all_cases": "EMSA",
  "key": {"ttMutS2 [1]": {"molecular_target": "T1, ttMutS2 (Thermus thermophilus, UniProt Q5SHT5 1-744)", "T1 sequence": "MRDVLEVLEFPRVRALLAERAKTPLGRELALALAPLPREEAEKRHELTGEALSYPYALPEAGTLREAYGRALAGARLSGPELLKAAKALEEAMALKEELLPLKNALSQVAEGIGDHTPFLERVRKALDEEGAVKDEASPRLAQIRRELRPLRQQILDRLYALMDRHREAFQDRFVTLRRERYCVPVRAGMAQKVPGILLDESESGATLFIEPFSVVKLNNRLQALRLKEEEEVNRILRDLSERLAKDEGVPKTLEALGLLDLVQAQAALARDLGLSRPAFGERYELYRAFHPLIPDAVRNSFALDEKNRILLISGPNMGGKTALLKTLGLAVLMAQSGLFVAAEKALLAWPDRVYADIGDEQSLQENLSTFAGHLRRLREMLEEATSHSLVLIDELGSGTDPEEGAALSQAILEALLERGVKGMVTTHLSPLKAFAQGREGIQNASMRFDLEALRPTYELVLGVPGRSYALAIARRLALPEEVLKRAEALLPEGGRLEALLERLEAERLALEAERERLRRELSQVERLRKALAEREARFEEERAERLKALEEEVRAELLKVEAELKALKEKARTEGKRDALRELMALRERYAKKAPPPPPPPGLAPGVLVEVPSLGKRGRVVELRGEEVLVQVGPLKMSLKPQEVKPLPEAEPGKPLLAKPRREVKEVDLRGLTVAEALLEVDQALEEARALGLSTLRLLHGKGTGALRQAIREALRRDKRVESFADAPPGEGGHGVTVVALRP"}, "[2]": {"molecular_target": "T2, N60-ttMutS2 (Smr-deleted) (Thermus thermophilus, UniProt Q5SHT5 1-540)", "T2 sequence": "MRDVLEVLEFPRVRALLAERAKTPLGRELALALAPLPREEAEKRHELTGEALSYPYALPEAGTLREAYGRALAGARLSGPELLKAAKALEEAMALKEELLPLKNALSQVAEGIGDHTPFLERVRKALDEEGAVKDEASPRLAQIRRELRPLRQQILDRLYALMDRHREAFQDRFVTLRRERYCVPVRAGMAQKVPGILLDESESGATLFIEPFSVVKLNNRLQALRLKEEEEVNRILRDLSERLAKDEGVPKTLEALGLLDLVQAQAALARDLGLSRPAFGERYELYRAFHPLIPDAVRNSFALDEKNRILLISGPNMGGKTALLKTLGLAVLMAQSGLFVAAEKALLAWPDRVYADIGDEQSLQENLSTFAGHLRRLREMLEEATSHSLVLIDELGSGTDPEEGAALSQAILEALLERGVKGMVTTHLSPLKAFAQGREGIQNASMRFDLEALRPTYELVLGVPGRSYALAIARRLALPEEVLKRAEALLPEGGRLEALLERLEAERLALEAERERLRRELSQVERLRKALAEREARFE"}, "ttSmr": {"molecular_target": "T3, ttSmr (Thermus thermophilus, UniProt Q5SHT5 621-744)", "T3 sequence": "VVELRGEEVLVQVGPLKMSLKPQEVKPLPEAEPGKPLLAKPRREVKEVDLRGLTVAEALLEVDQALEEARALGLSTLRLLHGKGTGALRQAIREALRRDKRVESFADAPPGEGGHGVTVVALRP"}, "ttMutS2 [3]": {"molecular_target": "T1, ttMutS2", "remark": "listed apart in the source"}, "[4]": {"molecular_target": "T2, N60-ttMutS2 (Smr-deleted)", "remark": "listed apart in the source"}},
  "note": "Where two headings read alike, the source gives them in different places.",
  "data": [
    {"binder": "B1", "values": [
      {"measurement": "binding result", "setting": "ttMutS2 [1]", "value": "binds"},
      {"measurement": "binding result", "setting": "[2]", "value": "binds"}
    ]},
    {"binder": "ATGTGAATCAGTATGGTTTC (ssDNA)", "note": "[20mer ssDNA]", "values": [
      {"measurement": "binding result", "setting": "ttSmr", "value": "binds"},
      {"measurement": "binding result", "setting": "ttMutS2 [3]", "value": "no binding"},
      {"measurement": "binding result", "setting": "[4]", "value": "no binding"}
    ]}
  ]
}
